The values below come from US6013515, “Cofactors for HIV-1 protein Tat and methods of use therefor” (The Rockefeller University, dated 2000).

One assay addresses HIV-1 Tat (HIV-1, UniProt P04608). Description: cell-based or functional assay.
Assay [1] has as its target GST (glutathione S-transferase) control column (Schistosoma japonicum (Blood fluke), UniProt P08515 = GST). Description: affinity chromatography of HeLa whole cell extract, SDS-PAGE, silver stain.

B1: TIP1 expressed in HeLa cells from pcDNA3.1TIP1 (other)
chain: MAETEALSKLREDFRMQNKSVFILGASGETGRVLLKEILEQGLFSKVTLIGRRKLTFDEEAYKNVNQEVVDFEKLDDYASAFQGHDVGFCCLGTTRGKAGAEGFVRVDRDYVLKSAELAKAGGCKHFNLLSSKGADKSSNFLYLQVKGEVEAKVEELKFDRYSVFRPGVLLCDRQESRPGERLVRKFFGSLPDSWASGHSVPVVTVVRAMLNNVVRPRDKQMELLENKAIHDLGKAHGSLKP
With B1, the “CAT expression from HIV-1 LTR-CAT reporter in cotransfected HeLa cells” value with HIV-1 Tat is 8.9 fold.

B2: Tat-interacting protein 30 (TIP30), endogenous 30 kDa protein from HeLa extract (other)
chain: AETEALSKLREDFRMQNKSVFILGASGETGRVLLKEILEQGLFSKVTLIGRRKLTFDEEAYKNVNQEVVDFEKLDDYASAFQGHDVGFCCLGTTRGKAGAEGFVRVDRDYVLKSAELAKAGGCKHFNLLSSKGADKSSNFLYLQVKGEVEAKVEELKFDRYSVFRPGVLLCDRQESRPGERLVRKFFGSLPDSWASGHSVPVVTVVRAMLNNVVRPRDKQMELLENKAIHDLGKAHGSLKP
Take B2: in assay [1], the binding result is “no binding”.
